# Molecular target: CRM1^HA (high affinity mutant of CRM1) (UniProt Q6P5F9)
# Assay: ITC; TFP-NES, YFP-NES or NES peptides at 35–180 μM titrated onto CRM1^HA at 2–14 μM; 20°C; 20 mM HEPES pH 7.4, 50 mM NaCl, 1 mM TCEP, 1 mM MgCl2; independent binding sites model
Substance,Kd [nM],dH [kcal/mol],stoichiometry N
TFP-mutE(NES) (domain or fragment),1040,-15.4,0.8
"peptide AL (long NES motif of NPM mutant A, with Ile284)",57,-18.1,0.33
"peptide EL (long NES motif of NPM mutant E, with Ile284)",31,-19.8,0.51

# Continued by falling Kd, values first:
Kd [nM],dH [kcal/mol],stoichiometry N,Substance
2380,-14.5,0.54,TFP-mutA(NES) (domain or fragment)
76,-20.8,0.4,peptide ES (short NES motif of NPM mutant E)
18,-13.7,1.01,YFP-PKI(NES) (domain or fragment)

# Reference: publication PMC4474691, “Leukemia-Associated Mutations in Nucleophosmin Alter Recognition by CRM1: Molecular Basis of Aberrant Transport” (PLoS ONE, 2015)
